Experimental data taken from publication PMC4154664.

B1: B. malayi NMT (BmNMT, myristoyl-CoA:protein N-myristoyltransferase) (Brugia malayi) (protein)
chain: MKEPPAGNIKLDDEDEKMMAAGNSKMDQNNDKENDAGDESIQNVTGRNSPTAVIDLKELTESTLMKKFEMLTVGGTSAAKHITEAQRHKYLFWDTQPVPKINEMVTENRAIEPPLDISEVREEPFSLPDPFCWCDIEINSVKELTELYTLLTENYVEDDDNMFRFDYSPEFLLWALKAPGWMKNWHCGVRAKSNGKLIAFISAIPSVIRVYDKQIKMVEINFLCVHKKLRSKRVAPVLIREITRRVNREGIFQAVFTAGVVLPKPIATCRYWHRSLNPKKLIEVKFSHLSRKMTMQRTLKLYKLPDHPRTANLVPMKKCHIDGAYGLLQCYLKKFDLSPQFTRADFEHFFMPREDVIYSYVALNEEDSKVSDLISFYSLPSSVMHHPQYKSIRAAYSFYNVATSVTLKQLINDALILARNCGFDVFNALDLMDNKEILEDLKFGIGDGNLQYYLYNWKCPDIIPEKIGLVLQ
B2: C. elegans NMT (CeNMT, myristoyl-CoA:protein N-myristoyltransferase) (Caenorhabditis elegans) (protein)
chain: MSHGHSHDGAPCGGHHGDDGAGGSRPSVNDVQALVDQLRLAGVDVSNMPNIPTAPRDMDEARSKSFQFWSTQPVPQMDETVPADVNCAIEENIALDKVRAEPFSLPAGFRWSNVDLSDEEQLNELYNLLTRNYVEDDDSMFRFDYSADFLKWALQVPGFRPEWHCGVRADSNNRLLAFIGAVPQTVRVYDKTVNMVEINFLCVHKNLRSRRVAPVLIREITRRVNVTGIFQAAFTAGIVIPKPVSVCRYYHRSLNPRKLIDVRFSHLSAKMTMARTIKLYKLPEETATRNLREMKSTDVPQVFKLLTTSLKQYSLAPVYNSEEELAHALVPKKGVVYSYVAENQNGKITDFVSFYSLPSTVMGHTTHKTIYAAYLYYYVAGSVTPKQLINDSLILANREKFDVFNALDLMHNEKIFSDLKFGKGDGNLQYYLYNWKCADMKPSQIGLVLQ

Substrate: CCCCCCCCCCCCCC(=O)SCCNC(=O)CCNC(=O)[C@H](O)C(C)(C)COP(=O)(O)OP(=O)(O)OC[C@H]1O[C@@H](n2cnc3c(N)ncnc32)[C@H](O)[C@@H]1OP(=O)(O)O
Assay: purified protein

| Protein | Km [µM] |
| --- | --- |
| B1 | 4.4 |
| B2 | 12.2 |
